According to patent US20090197797A1, “USE OF HYALURONIC ACID AS A CARRIER MOLECULE FOR DIFFERENT CLASSES OF THERAPEUTIC ACTIVE AGENTS” (priority 2006, published 2009):

Experiment: storage stability of HA-6-MTX checked by repeated NMR spectrum
Type: physicochemical
Settings: 3-months storage at room temperature; compared with freshly prepared product
Method: A solution of HA-OMs:TBA salt from Example 10 (500 mg; 0.73 mmol) in DMSO (15 ml) was treated with a solution of methotrexate (833 mg; 1.83 mmol) in DMSO (10 ml) in the presence of solid cesium carbonate (596 mg; 1.83 mmol). The mixture was stirred under nitrogen at 80° C. for 18 h, whereupon it darkened with formation of solids. It was then cooled to ambient temperature, poured into 100 ml of water (pH 6.5), treated with 15 ml of saturated NaCl solution, and stirred for 1.5 h. Then solids were filtered off and the solution was ultrafiltered, concentrated and freeze-dried to give 131 mg of a yellow-brownish solid. […] HPLC analysis gave 32% w/w, corresponding to 40% mol/mol.

For “6-O-Methotrexylhyaluronic Acid [Example 24]”, the “NMR spectrum repeated on the same sample after storage (stability of substitution degree)” value was “the substitution degree is maintained and no by-products are formed”.
